Source: publication PMC9425024
Several values for one entry are separate records, joined by “and”; a condition that tells them apart may be missing. Equal entries are not always repeated.

Experiments:
[1] = target: CTD At ProXp-ala (Arabidopsis thaliana); assay: SEC-MALS; Superdex 200 Increase 10/300 GL in 50 mM Hepes pH 6.8, 30 mM KCl, 2 mM DTT, 1 mM MgCl2; 100 μl of 3 mg/ml WT, 6 mg/ml ΔCTD or 1.5 mg/ml CTD injected; self-association
[2] = target: wildtype Arabidopsis thaliana (At) ProXp-ala (Arabidopsis thaliana); assay: as above

Substance | stoichiometry N [1] | stoichiometry N [2]
CTD At ProXp-ala (domain or fragment) | 2 and 4 | 
wildtype Arabidopsis thaliana (At) ProXp-ala (enzyme) |  | 2
